Data taken from the supplement of paper PMC9170038.

System: MS2 coat protein
Test: apparent KD of MS2 coat protein; higher = weaker reporter binding
Settings: Eterna round: R107
Protocol: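 RNA-MaP round R107: designed RNA switches with theophylline, tryptophan, arginine or FMN aptamers are transcribed on-chip within common flanks. They are titrated with SNAP-549-labelled MS2 coat protein in RNA-MaP buffer (100 mM Tris pH 7.5, 80 mM KCl, 4 mM MgCl2), without ligand or with the indicated ligand. Median apparent KD per design.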

[1] = input ligand: theophylline 20 uM
[2] = input ligand: theophylline 2 mM
[3] = input ligand: tryptophan 2.4 mM

Sequence | apparent KD of MS2 coat protein (input ligand: arginine 13.2 mM) [nM] | apparent KD of MS2 coat protein (input ligand: none) [nM] | apparent KD of MS2 coat protein [1] [nM] | apparent KD of MS2 coat protein [2] [nM] | apparent KD of MS2 coat protein [3] [nM]
ACAAGGACAUGAGGAUCACCCAUGUGGGAAGGAGCGCAUAAAUAUGCAGGUAGGUCGCCCGGCGUGAUAUUUAAUAUUUUAAUAA [Exclusion - Arginine A] | 34 | 55.7 | 79.4 | 73.5 | 60.2
ACACAAUACAUGAGGAUCACCCAUGUAUAACGAGGACCGGUACGGCCGCCACUCGAAUACUGUAAUCCUCGGAAUAUUAUGUGAA [JR_ExcTryptA_Sub003] | 32.9 | – | 56.7 | 60.5 | –
ACACGGCAUGAUGGAUCACCUCGUGAAUCACGAGGACCGGUACGGCCGCCACUCGAAAACCGUGACCUGUACGAAAAGUGCAGGA | 36 | 53 | 254 | 758 | 38.8
ACAUGAGGAUCACCCAUGUAAAUAACGGAAGGAGCGUGCAAAAGCACAGGUAGGUCGCCGAUAUAAAUAUUGGGUAUUAUAUUUU [AstrosExyArgA#3] | 30.4 | 30.4 | 40.3 | 31.7 | 29.6
ACAUGAGGAUCACCCAUGUAACGUCUUGAUACCAGACGAGAAGUAGUCCCUUGGCAGCAAAUACGUGAGGGUCACACAUGUGUAA [vvvmullin] | 13.8 | – | 34.4 | – | 22.1
ACAUGAGGAUCACCCAUGUAAUCAUCAGAAGGAGCGUGGAAUAACACAGGUAGGUCGCUGAUGUUAUGUUAAAAUGGUUCGUGAA [JR_ExcArginiA_Sub002] | 18.8 | 19.1 | 23.7 | 17.3 | 22.5
ACAUGAGGAUCACCCAUGUACAUGAGGGAAGGAGCGGUACAUGAGCCAGGUAGGUCGCCCAUGAGCAUCAGCCAUGUACAUCAGC [vv,mmullin] | 40.9 | 115 | 97.6 | 101 | 75.7
ACAUGAGGAUCACCCAUGUACGGUAUCAAUCGAGGACCGGUACGGCCGCCACUCGGAAAUAGAAGCGAUUAUUAGUGUUCUUUGU [Same State - Tryptophan A / A] | 16.1 | – | 19 | 16.6 | –
ACAUGAGGAUCACCCAUGUAUUACCGGGAAGGAGCGCGUAAGGACGCAGGUAGGUCGCUCGGCGUCCGGCCGCAAGGCUGGACGA [#1 Same State - Arginine A Attempt #17 (HarryS)] | 12.3 | 16.3 | 18.1 | 16.4 | 15.2
ACAUGAGGAUCACCCAUGUGAAGCAGGGUACGAGGACCGGUACGGCCGCCACUCGAGCAUUAUACCGAGUGAAUGGCAACGAUGU [whbob_Ex_trypto A_2s17] | 14.4 | – | 19 | 21.1 | –
ACAUGAGGAUCACCCAUGUGAAGCAGGGUACGAGGACCGGUACGGCCGCCACUCGAGGAUUAUACCGAGUGAAUGGCAACGAUGU [whbob_Ex_trypto A_2s18] | 13.2 | 14.1 | 21.8 | 17.8 | 15.2
ACAUGAGGAUCACCCAUGUGCCGUCUUGAUACCAGACGCGAAGUAGUCCCUUGGCAGCAACUACGUGACGGUCGCGCAUGUGUAG [bcxmullin] | 17.8 | – | 21.4 | – | 16.1
ACAUGAGGAUCACCCAUGUGUGUAAAUCCUCGAGGACCGGUACGGCCGCCACUCGAACGAGUGUAAGUUGAAUGUAACAUUCAAC [SS Trp A v1] | 47.3 | – | 123 | 104 | –
ACAUGAGGAUCACCCAUGUGUGUAAGUCCUCGAGGACCGGUACGGCCGCCACUCGAACGAGUGUAACAUACUUGUUACAAGUAUG [SS Trp A s3] | 18.5 | – | 39.9 | 43.3 | –
ACAUGAGGAUCACCCAUGUUCAUGCGGGAAGGAGCGUGCGGAAGCACAGGUAGGUCGCCCUCAAUAUCUAACGUUACGUUCAUGA [#26 Same State - Arginine A] | 13.7 | 14.3 | 18.4 | 14.4 | 15.5
ACAUGAGGAUCACCCAUGUUCCUCGCCGAUACCAGUGAAGAAUUACGCCCUUGGCAGCGGAAUGAGUGUUUUGGAGAUGAGGUAC [6.aB] | 84.4 | – | 112 | – | 81
ACAUGAGGAUCACCCAUGUUGAGCACAGAAGGAGCGUGAUUAAGCACAGGUAGGUCGCUGUACUUAUCGAGCGUUAGCUCGAUAC [JR_Nu_SSArginiA_Sub030] | 21 | 22.3 | 32.6 | 28.3 | 22.8
ACAUGAGGAUCACCCAUGUUUGUUGUUCCUCGAGGACCGGUACGGCCGCCACUCGAACGAGUGGCACGCGAGUGCGCACUCGCGU [aPa] | 13.9 | – | 19.6 | 13.1 | 13
